Results published in publication PMC2701922.

How the values were obtained:
purified protein [1] = substrate: NC(=O)c1ccc[n+]([C@@H]2O[C@H](COP(=O)(O)OP(=O)(O)OC[C@H]3O[C@@H](n4cnc5c(N)ncnc54)[C@H](O)[C@@H]3O)[C@@H](O)[C@H]2O)c1; assay: purified protein; assay type: biochemical, Thermotoga maritima; settings: 50-1000 μM NAD+, with 6-phosphogluconate, 80°C, varied: cofactor
purified protein [2] = substrate: NC(=O)c1ccc[n+]([C@@H]2O[C@H](COP(=O)(O)OP(=O)(O)OC[C@H]3O[C@@H](n4cnc5c(N)ncnc54)[C@H](OP(=O)(O)O)[C@@H]3O)[C@@H](O)[C@H]2O)c1; assay: purified protein; assay type: biochemical, Thermotoga maritima; settings: 2 mM 6-phosphogluconate, 50 mM Hepes pH 7.5, 5 mM Mg2+, 0.5 mM Mn2+, 80°C, varied: cofactor

B1: T. maritima 6PGDH (Thermotoga maritima MSB8) (protein)
chain: MKSHIGLIGLAVMGQNLALNIARKGYKVSVYNRTAQRTEEFVKNRVTNEEIEPHYDIESFVKSLERPRKIILMVKAGKPVDDTISQLLPHLEPGDLIIDGGNSHYMDTERRFKELSEKGILFLGMGVSGGEYGALHGPSLMPGGSREAYNLVEEILLEIAAKTEDGPCCTYVGERSAGHFVKMVHNGIEYAIMQAIAEVYHIMRDVLSLSSEEMSSIFEEWNRGELSSFLVEITYKILRKKDEETGKPMVDVILDKAEQKGTGKWTSQAALDLGIPTPSINLAVVERVISHFKDIRTRLSKLYNKRRSATQGSEEFLRDLRNSLFFAMFMAFSQGMWLIAEASKEFGYGVSLSEVLRIWKGGCIIRAKLIDTLRRYISNENAYLLENEEVMNLLKGKIDSLKNILKASIENEIPVPVLSSSYNYFMSLTEERLPANLIQAQRDFFGAHTFERVDREGVFHINWEEGEIG
notes: full length, expressed in E. coli as CBM-intein-6PGDH fusion, tag removed by intein self-cleavage; 53 kDa
Purified protein [1]
  Km: 380 µM
Purified protein [2]
  Km: 10 µM
